Laboratory results: FireProtDB (doi:10.1016/j.jmb.2010.11.028)

B1: Alpha-tocopherol transfer protein, P49638 (parent)
chain: MAEARSQPSAGPQLNALPDHSPLLQPGLAALRRRAREAGVPLAPLPLTDSFLLRFLRARDFDLDLAWRLLKNYYKWRAECPEISADLHPRSIIGLLKAGYHGVLRSRDPTGSKVLIYRIAHWDPKVFTAYDVFRVSLITSELIVQEVETQRNGIKAIFDLEGWQFSHAFQITPSVAKKIAAVLTDSFPLKVRGIHLINEPVIFHAVFSMIKPFLTEKIKERIHMHGNNYKQSLLQHFPDILPLEYGGEEFSMEDICQEWTNFIMKSEDYLSSISESIQ

Variants of: B1
Settings: Homo sapiens; pH 7.4; Thermal; Fluorescence; Tris 50mM; structure 1R5L; whole UniProt chain shown
In the case of MAEARSQPSAGPQLNALPDHSPLLQPGLAALRRRAREAGVPLAPLPLTDSFLLRFLRARDFDLDLAWRLLKNYYKWRAECPEISADLHPRSIIGLLKAGYHGVLRSRDPTGSKVLIYRIAHWDPKVFTAYDVFRVSLITSELIVQEVETQRNGIKAIFDLEGWQFSHAFQITPSVAKKIAAVLTDSFPLKVRGIHLINEPVDFHAVFSMIKPFLTEKIKERIHMHGNNYKQSLLQHFPDILPLEYGGEEFSMEDICQEWTNFIMKSEDYLSSISESIQ [I202D], the Tm is reported as 73.6 °C. Work on MAEARSQPSAGPQLNALPDHSPLLQPGLAALRRRAREAGVPLAPLPLTDSFLLRFLRARDFDLDLAWRLLKNYYKWRAECPEISADLHPRSIIGLLKAGYHGVLRSRDPTGSKVLIYRIAHWDPKVFTAYDVFRVSLITSELIVQEVETQRNGIKAIFDLEGWQFSHAFQITPSVAKKIAAVLTDSFPLKVRGIHLINEPVAFHAVFSMIKPFLTEKIKERIHMHGNNYKQSLLQHFPDILPLEYGGEEFSMEDICQEWTNFIMKSEDYLSSISESIQ [I202A] yielded a Tm of 74.9 °C. For MAEARSQPSAGPQLNALPDHSPLLQPGLAALRRRAREAGVPLAPLPLTDSFLLRFLRARDFDLDLAWRLLKNYYKWRAECPEISADLHPRSIIGLLKAGYHGVLRSRDPTGSKVLIYRIAHWDPKVFTAYDVFRVSLITSELIVQEVETQRNGIKAIFDLEGWQDSHAFQITPSVAKKIAAVLTDSFPLKVRGIHLINEPVIFHAVFSMIKPFLTEKIKERIHMHGNNYKQSLLQHFPDILPLEYGGEEFSMEDICQEWTNFIMKSEDYLSSISESIQ [F165D], the Tm was 82.4 °C. Variant MAEARSQPSAGPQLNALPDHSPLLQPGLAALRRRAREAGVPLAPLPLTDSFLLRFLRARDFDLDLAWRLLKNYYKWRAECPEISADLHPRSIIGLLKAGYHGVLRSRDPTGSKVLIYRIAHWDPKVFTAYDVFRVSLITSELIVQEVETQRNGIKAIFDLEGWQASHAFQITPSVAKKIAAVLTDSFPLKVRGIHLINEPVIFHAVFSMIKPFLTEKIKERIHMHGNNYKQSLLQHFPDILPLEYGGEEFSMEDICQEWTNFIMKSEDYLSSISESIQ [F165A] has a Tm of 82.4 °C. For MAEARSQPSAGPQLNALPDHSPLLQPGLAALRRRAREAGVPLAPLPLTDSFLLRFLRARDFDLDLAWRLLKNYYKWRAECPEISADLHPRSIIGLLKAGYHGVLRSRDPTGSKVLIYRIAHWDPKVFTAYDVFRVSLITSELIVQEVETQRNGIKAIFDLEGWQFSHAFQITPSVAKKIAAVLTDSFPLKVRGIHLINEPVIFHAVFSAIKPFLTEKIKERIHMHGNNYKQSLLQHFPDILPLEYGGEEFSMEDICQEWTNFIMKSEDYLSSISESIQ [M209A], the Tm was 82.8 °C. Work on MAEARSQPSAGPQLNALPDHSPLLQPGLAALRRRAREAGVPLAPLPLTDSFLLRFLRARDFDLDLAWRLLKNYYKWRAECPEISADLHPRSIIGLLKAGYHGVLRSRDPTGSKVLIYRIAHWDPKVFTAYDVFRVSLITSELIVQEVETQRNGIKAIFDLEGWQFSHAFQITPSVAKKIAAVLTDSFPLKVRGIHLINEPVIFHAVFSDIKPFLTEKIKERIHMHGNNYKQSLLQHFPDILPLEYGGEEFSMEDICQEWTNFIMKSEDYLSSISESIQ [M209D] yielded a Tm of 79.5 °C. With MAEARSQPSAGPQLNALPDHSPLLQPGLAALRRRAREAGVPLAPLPLTDSFLLRFLRARDFDLDLAWRLLKNYYKWRAECPEISADLHPRSIIGLLKAGYHGVLRSRDPTGSKVLIYRIAHWDPKVFTAYDVFRVSLITSELIVQEVETQRNGIKAIFDLEGWQFSHAAQITPSVAKKIAAVLTDSFPLKVRGIHLINEPVIFHAVFSMIKPFLTEKIKERIHMHGNNYKQSLLQHFPDILPLEYGGEEFSMEDICQEWTNFIMKSEDYLSSISESIQ [F169A] the Tm was 75.3 °C. In the case of MAEARSQPSAGPQLNALPDHSPLLQPGLAALRRRAREAGVPLAPLPLTDSFLLRFLRARDFDLDLAWRLLKNYYKWRAECPEISADLHPRSIIGLLKAGYHGVLRSRDPTGSKVLIYRIAHWDPKVFTAYDVFRVSLITSELIVQEVETQRNGIKAIFDLEGWQFSHAFQITPSVAKKIAAVLTDSFPLKVRGIHLINEPVIFHADFSMIKPFLTEKIKERIHMHGNNYKQSLLQHFPDILPLEYGGEEFSMEDICQEWTNFIMKSEDYLSSISESIQ [V206D], the Tm is reported as 76 °C. For MAEARSQPSAGPQLNALPDHSPLLQPGLAALRRRAREAGVPLAPLPLTDSFLLRFLRARDFDLDLAWRLLKNYYKWRAECPEISADLHPRSIIGLLKAGYHGVLRSRDPTGSKVLIYRIAHWDPKVFTAYDVFRVSLITSELIVQEVETQRNGIKAIFDLEGWQFSHAFQITPSVAKKIAAVLTDSFPLKVRGIHLINEPVIFHAAFSMIKPFLTEKIKERIHMHGNNYKQSLLQHFPDILPLEYGGEEFSMEDICQEWTNFIMKSEDYLSSISESIQ [V206A], the Tm was 78.2 °C. MAEARSQPSAGPQLNALPDHSPLLQPGLAALRRRAREAGVPLAPLPLTDSFLLRFLRARDFDLDLAWRLLKNYYKWRAECPEISADLHPRSIIGLLKAGYHGVLRSRDPTGSKVLIYRIAHWDPKVFTAYDVFRVSLITSELIVQEVETQRNGIKAIFDLEGWQFSHAFQITPSVAKKIAAVLTDSFPLKVRGIHLINEPVIFHAVFSMIKPFLTEKIKERIHMHGNNYKQSLLQHFPDILPLEYGGEEFSMEDICQEWTNFIDKSEDYLSSISESIQ [M264D] showed a Tm of 68.8 °C.
